The supplement of paper PMC10567573

B1: ELF3 (parent)
chain: RLVYKFGKNSSGWKEEEVLQSRN
B2: MMP1 (parent)
chain: FVRGDHRDNSPFDGPGGNLAHAFQ

Variants of: B1
Assay: protein stability index of a GFP-peptide fusion (GPS, HEK-293T) (PSI 1-6); higher = more stable
Details: c terminus: native
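Also: lentivirally expressed fusions sorted by FACS into six bins by GFP to DsRed ratio, PSI derived from sequencing read proportions per bin multiplied by bin number.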

Protein stability index, by site and new letter:
N9: R 2.91; S 2.22; E 3.08; L 2.59; G 1.9; M 4.34; K 1.97; D 3.19; A 1.7; F 1.98; P 2.33; V 2.08; Q 1.87; Y 1.25; T 1.73; H 1.68
W13: Q 3.29; G 4.27; E 4.85; T 4.2; M 3.91; D 4.86; I 3.91; L 4.02; K 3.85; S 3.78; P 4.45; Y 2.96; R 3.74; A 4.73; C 4.09; H 4.28; F 3.03; V 3; N 3.67
K5: D 2.8; V 1.95; H 1.98; Q 2.09; N 2.39; R 1.05; Y 2.16; M 1.91; L 2.75; P 1.89; I 1.36; S 2.5; E 2.89; T 2.14; A 1.76; C 2.52
E15: N 1.94; I 1.55; W 1.86; F 3; D 1.9; G 1.76; Q 1.76; C 2.49; V 2.49; H 2.81; K 3.27; A 1.43
G12: T 1.87; A 2.37; F 1.82; W 1.88; I 1.76; L 3.23; N 1.98; S 2.5; P 2.46; D 3.19; C 2.05; Q 1.95; V 1.79; Y 2.57; E 2.98; H 2.02; K 1.69
K14: R 2.43; F 2.49; M 2.88; N 1.92; A 2.02; I 2.25; H 1.41; E 3.31; V 2.25; S 2.89; T 2.32; D 3.25; L 2.7; P 2.58; Y 2.28; Q 3; C 2.12
E17: S 1.13; Q 2.09; D 1.75; N 1.6; K 1.3; I 2.02; F 1.75; H 1.11; A 2.06; M 2.27; V 1.98; Y 2.98; T 1.51; C 2.62; G 1.93; P 2.22
R1: A 2.54; Y 1.69; Q 2.67; H 2.72; S 1.69; F 2.22; I 1.62; G 2.87; L 1.83; E 3.17; M 2.4; C 2.32; K 2.55; P 3.7; V 1.24; T 2.18; N 3
G7: V 1.49; R 2.29; K 1.9; H 1.8; M 1.81; A 1.89; P 2.31; T 2.31; N 2.64; Y 2.41; Q 2.5; W 3.57; D 4.11; S 2.67; I 1.46; E 2.94
S10: R 1.18; P 2.1; T 3.02; M 1.9; Q 2.51; H 2.56; A 2.64; E 2.86; I 1.66; D 3.25; K 2.23; C 2.55; Y 1.56; G 2.11; F 1.34; N 2.1
Y4: G 2.69; C 1.95; D 3.73; V 2.82; K 3.36; H 3.8; R 1.23; P 3.43; F 2.35; A 3.39; N 3.13; L 1.83; I 2.12; S 2.42; Q 3.16; E 3.47; M 2.55; T 3.06
L19: H 2.98; I 2.67; A 3.3; E 4.05; K 3.02; M 2.43; D 4.52; F 1.49; G 3.19; C 2.33; N 3.65
S11: K 1.6; H 1.89; I 1.54; D 3.33; F 1.09; E 3.01; C 1.84; P 2.79; T 2.83; Y 2.21; V 3.33; N 1.89; R 2.05; L 1.78; M 1.73
E16: G 1.5; L 3.56; I 3.06; Q 1.25; H 1.25; F 3.9; C 1.94; V 1.04; Y 2.91; K 2.46; D 2.15; N 2.51
V3: P 2.63; N 3.46; K 2.49; G 2.48; E 4.75; T 2.86; F 2.38; D 4.2; Y 2.37; R 2.75; A 3.88; C 1.71; S 2.7; M 2.38; H 2.53; L 1.9
L2: P 2.66; V 2.71; E 4.2; K 2.31; W 1.58; T 2.84; R 2.87; N 3.41; A 3.2; M 2.99; D 4.22; C 2.29; F 2.79; Q 3.04; G 2.78; S 2.93; Y 1.85; I 2.45; H 3.38
F6: A 3.69; Y 2.45; I 2.26; H 3.29; S 3.28; R 3.06; E 4.52; T 3.5; L 1.61; C 1.42; P 3.47; K 3.53; Q 3.08; V 3.89; W 2.12; N 3.65; G 3.75; D 4.7
K8: C 2.85; Y 1.42; T 2.62; F 1.86; A 2.77; I 2.14; S 2.44; V 1.91; N 2.46; H 2.26; G 2.49; R 1.31; L 1.92; D 3.36; E 2.97; M 1.38; P 2.25
V18: C 2.44; I 2.32; M 1.84; K 2.94; P 2.81; N 2.59; F 1.73; Y 1.25; L 2.08; H 3.01; A 2.49; G 2.9; E 3.17; W 1.62; T 2.16; Q 2.35; S 2.68; D 3.45; R 2.29

Variants of: B2
Assay: as above
Details: c terminus: a fixed tail appended

Protein stability index: each site, then its substitutions
Q24: S 1.02; F 2.78; D 2.75; M 2.73; A 1.88; T 3.41; H 1.84; V 2.39; C 1.72; L 1.93; N 1.62; E 3.81; K 1.6; P 1.97; Y 3.94; R 1.63; G 1.99
F23: R 2.03; P 2.63; T 1.56; V 1.99; S 1.88; W 2.74; Q 2.11; M 2.25; Y 2.12; N 1.73
